Laboratory results from patent US20170119913A1.
Numbered stars: 1 amine (or outer) side, 2 acyl side, 3 side chain; on linkers, the order of the positions; unused ones are H or OH. Square brackets hold non-standard residues; d marks the D form. * marks the point of attachment. DOTA = O=C(O)CN1CCN(CC(=O)O)CCN(CC(=O)*)CCN(CC(=O)O)CC1; Ttds = O=C(CCC(=O)[*:2])NCCCOCCOCCOCCCN[*:1]; Glutaryl = O=C(CCCC(=O)[*:2])[*:1]; Tle = CC(C)(C)[C@H](N)C(=O)O; 1206 = not defined here; GABA = NCCCC(=O)O

B1: DPDPE (peptide)
chain: YCGFC
modifications: not checked
B2: 1206-Glutar-Ttds-Lys(DOTA)-Ttds-GABA-Arg-Arg-Pro-Tyr-Tle-Leu-OH (16) (peptide)
peptide: {1206-Glutaryl}-[Ttds]K(DOTA)[Ttds][GABA]RRPY[Tle]L-OH
modifications: reading uncertain
B3: 1206-Glutar-Ttds3-Lys(DOTA)-Ttds3-GABA-arg-Arg-Pro-Tyr-Tle-Leu-OH (18) (peptide)
peptide: {1206-Glutaryl}-[Ttds][Ttds][Ttds]K(DOTA)[Ttds][Ttds][Ttds][GABA][dR]RPY[Tle]L-OH
modifications: reading uncertain
B4: 1206-Glutar-Ttds-Lys(DOTA)-Ttds-GABA-arg-Arg-Pro-Tyr-Tle-Leu-OH (17) (peptide)
peptide: {1206-Glutaryl}-[Ttds]K(DOTA)[Ttds][GABA][dR]RPY[Tle]L-OH
modifications: reading uncertain

Columns and labels:
[1] = molecular target: T1, delta 2 (DOP) (h), delta2 opioid receptor (human (printed as (h))), P41143; assay: Cerep ExpresSProfile radioligand competition binding, reference compound (agonist radioligand)
T1 chain: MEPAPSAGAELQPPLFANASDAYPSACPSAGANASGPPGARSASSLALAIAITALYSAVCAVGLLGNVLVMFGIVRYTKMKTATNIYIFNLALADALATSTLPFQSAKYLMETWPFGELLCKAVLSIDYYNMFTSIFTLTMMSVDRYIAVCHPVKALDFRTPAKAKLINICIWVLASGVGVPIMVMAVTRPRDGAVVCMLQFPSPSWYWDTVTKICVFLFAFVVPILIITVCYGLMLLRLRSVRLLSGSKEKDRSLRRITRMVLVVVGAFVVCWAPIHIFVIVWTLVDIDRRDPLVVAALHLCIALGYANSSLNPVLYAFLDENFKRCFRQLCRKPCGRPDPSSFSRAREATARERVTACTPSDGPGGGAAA

[2] = molecular target: neurotensin receptor 1 (NTR1), human, prepared from CHO cells recombinantly expressing the human receptor (human) (UniProt P30989); assay: radioligand binding assay (Cerep 0109): displacement of 0.05 nM 125I-(Tyr3-neurotensin) from human NTR1 prepared from CHO cells
[3] = molecular target: NTR1 on HT29 or NTR1-expressing HEK293 cells (UniProt P30989); assay: cell-based or functional assay
NTR1 on HT29 or NTR1-expressing HEK293 cells, sequence (P30989 whole entry): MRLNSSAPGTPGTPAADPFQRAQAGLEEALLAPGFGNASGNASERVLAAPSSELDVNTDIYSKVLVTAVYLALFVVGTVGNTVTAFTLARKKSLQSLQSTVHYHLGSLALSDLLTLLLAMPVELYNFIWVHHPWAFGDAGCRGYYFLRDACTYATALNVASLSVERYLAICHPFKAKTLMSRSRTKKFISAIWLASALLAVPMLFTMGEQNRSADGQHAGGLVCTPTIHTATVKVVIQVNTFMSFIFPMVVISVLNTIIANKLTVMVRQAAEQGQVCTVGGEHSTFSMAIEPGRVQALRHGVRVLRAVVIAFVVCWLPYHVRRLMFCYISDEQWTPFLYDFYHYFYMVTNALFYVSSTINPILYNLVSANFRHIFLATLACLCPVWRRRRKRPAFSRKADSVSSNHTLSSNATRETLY

neurotensin receptor 1 (NTR1), human, prepared from CHO cells recombinantly expressing the human receptor (human), sequence (P30989 whole entry): as above

Row | Binder | Ki [1] [nM] | IC50 [2] [nM] | Agonistic Effect EC50 [nM], functional Ca2+ mobilisation assay [3] [nM] | Antagonistic Effect IC50 [nM], functional Ca2+ mobilisation assay [3] [nM]
1 | B1 | 2 | – | – | –
2 | B2 | – | 0.14 | 4 | 3.8
3 | B3 | – | 2.7 | > 50000 | 3.8
4 | B4 | – | 0.32 | 7 | 3.4
